Reference: publication PMC11997501 (Molecular Therapy, 2025)

Target: the molecule itself
Assay: western blot after SDS-PAGE of partially denatured samples

B1: murine MLC1 (natural protein, mouse (endogenous in C57BL/6J brain), UniProt Q8VHK5 1-382, looked up)
chain: MTREGQFREELGYDRMPTLERGRQDAGRQDPGSYTPDSKPKDLQLSKRLPPCFSYKTWVFSVLMGSCLLVTSGFSLYLGNVFPSEMDYLRCAAGSCIPSAIVSFAVGRRNVSAIPNFQILFVSTFAVTTTCLIWFGCKLILNPSAININFNLILLLLLELLMAATVIISARSSEEPCKKKKGSISDGSNILDEVTFPARVLKSYSVVEVIAGVSAVLGGVIALNVEEAVSGPHLSVTFFWILVACFPSAIASHVTAECPSKCLVEVLIAISSLTSPLLFTASGYLSFSVMRVVEIFKDYPPAIKSYDVLLLLLLLLLLLQGGLNTGTAIQCVSFKVSARLQAASWDPQSCPQERPAGEVVRGPLKEFDKEKAWRAVVVQMAQ
- stoichiometry N: 2
